# Reference: patent US20240307488A1, “ANNEXIN TO INHIBIT BACTERIA” (priority 2023, published 2024)
# How the values were obtained:
# [1] = tested on: E. coli strain BL21(DE3); test: dark field light microscopy of antibiotic-driven bacterial filament formation and filament length measurement; assay type: cell-based
# From the text: Use of dark field light microscopy to monitor antibiotic-driven bacterial filament formation.
# In bright field light microscopy, the filaments formed by bacteria in the presence of beta-lactam antibiotics are difficult to distinguish from “floaters” in the eyes of the microscopist. […] The light micrographs provided herein were all obtained by darkfield light microscopy. […] Therefore, transmission electron microscopy was also used in some cases for visualization of cell ultrastructure.
# Darkfield light microscopy of bacterial cultures was performed with a Nikon Labophot microscope (Nikon Instruments, Melville, New York) with a dark field condenser (dry) and an e plan40×/0.65 Nikon objective.
# of the inducer IPTG (Isopropyl β-d-1-thiogalactopyranoside). However, protein expression from this plasmid can have significant baseline expression without the inducer. […] Accordingly, all of the imaging and experiments described in this report were performed without adding the inducer, which avoided these problems.
# Five ml precultures in LB medium with 200 μg/ml ampicillin were seeded with colonies from LB-ampicillin agar plates and incubated on a rotator overnight at 34 degrees C. […] Slides were rested for 2 to 5 minutes to allow the cells to settle before observation. Nonetheless, the cells were not tightly adherent to the slides and occasionally some cells moved slightly during imaging resulting in a double image. Cultures were checked and micrographs taken at 5 to 20 min intervals for up to 4 hours. Occasionally during this period, the culture tubes were briefly inserted into a Genesys 20 spectrophotometer (Thermospectronic, Rochester, NY) and the absorbance at 600 nm was recorded to measure culture density. The culture tubes have a circular cross section with an inside diameter of 1.3 cm, so the absorbances recorded were approximately 30% higher than would have been measured in a square cuvette with a one cm pathlength.
# For preparation of the micrographs in FIGS. 1 through 3 comparing the morphology of the different transformed strains, each test culture (5 ml) was inoculated at the same time with 50 ul of the saturated overnight preculture. For display in the Figures, photographs taken after approximately the same period of growth of each of the parallel cultures were obtained when 20 μl samples provided a microscope image containing a broad sampling of the cell morphologies seen without overcrowding.
# The lengths of the bacterial filaments were measured using the Image J program (NIH) with the dark field light micrographs. […] The longest dimension of each cell or filament was taken to represent the “length” for the analysis. Forty to 90 filaments were measured from each of the sub-images in FIGS. 1 and 2.
# [2] = tested on: bovine chromaffin granule (secretory vesicle) membrane; conditions: from Nelson and Creutz [17], Table 4; cited from earlier work
# [3] = tested on: E. coli BL21(DE3) cells; test: electron microscopy of cells expressing wild type or mutant annexins A4; assay type: cell-based; conditions: 200 μg/ml ampicillin and 4 μg/ml piperacillin; FIG. 4
# From the text: E. coli samples selected for ultrastructural analysis were processed for electron microscopy using technical support and instrumentation in the Advanced Microscopy Facility at the University of Virginia School of Medicine. The following reagents for electron microscopy were obtained from Electron Microscopy Sciences (Hatfield, PA): sodium cacodylate, propylene oxide, EPON, uranyl acetate, and lead citrate.
# One ml samples of cell cultures were pelleted in a microcentrifuge and resuspended in 2.5% glutaraldehyde in 10 mM phosphate buffer (pH7.4) and held overnight at 4 degrees C. The cells were then washed in 0.1 M sodium cacodylate, 2 times, 10 minutes per wash. Then the samples were completely immersed in 1% osmium tetroxide (OsO4) in 0.1 M sodium cacodylate and incubated at room temperature for 1 hour. Following this incubation, the samples were rinsed in 0.1 M sodium cacodylate, 2 times, 10 minutes per wash. Next samples were dehydrated sequentially in 50%, 70%, 95%, 100% ethanol for at least 10 minutes each. Samples were then rinsed in 1:1 ethanol:propylene oxide and incubated for 10 min in the same mixture, then for 10 min in 100% propylene oxide. Following removal of the final propylene oxide, samples were incubated in a 1:1 propylene oxide:EPON mixture overnight, followed with 1:2 propylene oxide:EPON and 1:4 propylene oxide:EPON, 4 hours each. […]
# [4] = E. coli expressing construct, grown in ampicillin (200 μg/ml), FIG. 1
# [5] = ampicillin (200 μg/ml) plus piperacillin (4 μg/ml), FIG. 2
Molecule,"propensity to promote the formation of long, stable filaments ([1]; compared with ampicillin and piperacillin)","AVG μm: average length of the measured filaments [1, 4] [μm]","MAX μm: length of the longest filament in the micrograph [1, 4] [μm]",optical density (A600) of the cultures with or without the annexin ([1]; ampicillin (200 μg/ml)),promotion of cytokinesis (grouping of constructs) ([1]; ampicillin (200 μg/ml)),filament formation ([1]; ampicillin (200 μg/ml) plus cephalexin (25 μg/ml)),promotion of cytokinesis (grouping of constructs) ([1]; ampicillin (200 μg/ml) plus piperacillin (4 μg/ml)),"AVG μm: average length of the measured filaments [1, 5] [μm]","MAX μm: length of the longest filament in the micrograph [1, 5] [μm]","stability of the filaments after tenfold dilution of cephalexin ([1]; cephalexin reduced from 25 to 2.5 μg/ml after 3 hours 20 minutes, observed for two hours)",concentration of calcium leading to half-maximal binding to a biological membrane [2],relative abundance of short cells and filamentous forms in electron micrographs [3]
"CC1=C(C(=O)O)N2C(=O)[C@@H](NC(=O)[C@H](N)c3ccccc3)[C@H]2SC1 [cephalexin, reference compound]","greatest propensity to promote the formation of long, stable filaments",–,–,–,–,–,–,–,–,–,–,–
"bovine annexin A4 (protein, UniProt P13214 2-319, looked up) Annexin A4: AAKGGTVKAASGFNAAEDAQTLRKAMKGLGTDEDAIINVLAYRSTAQRQEIRTAYKTTIGRDLMDDLKSELSGNFEQVILGMMTPTVLYDVQELRKAMKGAGTDEGCLIEILASRTPEEIRRINQTYQLQYGRSLEDDIRSDTSFMFQRVLVSLSAGGRDESNYLDDALMRQDAQDLYEAGEKKWGTDEVKFLTVLCSRNRNHLLHVFDEYKRIAQKDIEQSIKSETSGSFEDALLAIVKCMRNKSAYFAERLYKSMKGLGTDDDTLIRVMVSRAEIDMLDIRANFKRLYGKSLYSFIKGDTSGDYRKVLLILCGGDD",–,5.279,15.03,similar,promoted cytokinesis,long filamentous cells were formed,promoted cytokinesis,5.052,9.472,completely stable,5.0×10^−6 M,number of short cells exceeds the number of extended filamentous forms
